# Reference: patent US20190002562A1 (INTERVET, published 2019)
# T1: canine PD-1 (canine)
# T1 construct: also called canine PD-1 antigen; cPD-1
# T1 chain: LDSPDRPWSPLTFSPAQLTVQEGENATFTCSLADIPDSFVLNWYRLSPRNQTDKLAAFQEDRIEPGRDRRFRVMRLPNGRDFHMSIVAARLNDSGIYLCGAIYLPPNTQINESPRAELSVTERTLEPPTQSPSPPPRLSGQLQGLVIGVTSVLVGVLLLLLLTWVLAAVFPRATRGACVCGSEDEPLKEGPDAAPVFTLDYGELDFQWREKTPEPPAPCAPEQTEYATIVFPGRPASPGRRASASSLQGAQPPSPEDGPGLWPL
# Experiments:
# canine PD-1 = molecular target: T1, canine PD-1; assay: SPR (Biacore T200), canine PD-1 amine-coupled, antibody as analyte, 1:1 fit
# [1] = molecular target: T2, recombinant human CD64 protein (R&D systems) (human, UniProt P12314 16-288); assay: ELISA: antibody titrated on coated PD-1 HIS, then recombinant human CD64 at 1 ug/mL, biotinylated anti-CD64 and streptavidin-HRP
# T2 construct: Bought protein; also called FcγRI; FcRγI
# Description: (§1) Binding to FcRγI is a measure of the ability of an antibody to mediate ADCC. In order to assess this property for the caninized antibodies an assay to measure binding of caninized antibodies to FcγRI was conducted as follows: Coat 96-well plates with 100 μl per well of 2.5 μg/mL PD-1 HIS. Incubate at 2-7° C. overnight. Equilibrate the plates to room temp for 15 minutes. Wash plates 3× with phosphate buffered saline containing 0.05% Tween® 20 (PBST) and then block the wells using 200 μL/well of 5% NFDM (Non Fat Dried Milk). Incubate for 60 minutes at 36-38° C. Wash 3× with PBST. Make 2-fold dilution of antibodies starting at 1 μg/mL in 5% NFDM. Add 100 μL/well of diluted antibodies. Incubate for 60 minutes at 36-38° C. Wash 6× with PBST. Add 100 μL/well of recombinant human CD64 protein (R&D systems) diluted to 1 μg/mL. Incubate for 60 minutes at 36-38° C. Wash 6× with PBST. Add 100 μL/well biotinylated-anti-CD64 antibody (R&D systems) diluted to 1:3000. Incubate for 60 minutes at 36-38° C. Wash 6× with PBST. Add 100 μL/well Streptavidin-HRP antibody (R&D systems) diluted to 1:7500. Incubate for 60 minutes at 36-38° C. Wash 6× with PBST. Add 100 μL/well TMB substrate. Incubate for 10 minutes at 15-30° C. Read plates using ELISA plate reader at 450-540 nm.
# [2] = molecular target: T2, recombinant human CD64 protein (R&D …); assay: ELISA: antibody captured on PD-1 HIS, recombinant human CD64 added
# Description: as §1
# T2 sequence (P12314 16-288 limits assumed): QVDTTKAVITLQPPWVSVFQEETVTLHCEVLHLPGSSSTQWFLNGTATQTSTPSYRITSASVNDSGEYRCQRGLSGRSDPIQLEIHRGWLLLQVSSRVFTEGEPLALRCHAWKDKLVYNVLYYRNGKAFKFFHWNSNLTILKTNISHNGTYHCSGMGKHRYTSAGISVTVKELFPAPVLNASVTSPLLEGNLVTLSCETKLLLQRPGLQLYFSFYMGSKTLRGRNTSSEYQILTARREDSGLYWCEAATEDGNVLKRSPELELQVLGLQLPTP
binding result [1],Binder,also measured
,"Murine 3B6 (antibody, V domains shown) VH: QIQLVQSGPELKKPGETVKISCKASGYTFTTYGMSWVKQAPGKGLKWMGWINIYSGIPTYADDFKGRFAFSLETSASTAYLQIDNLKNEDTATYFCARFDGPDYWGQGTTLTVSS VL: DIVMTQSPSSLAVSVGRKVTMSCKSSQSLLNSVNQKNYLAWYQQKPGQSPKVLVYFASARVSGVPDRFIGSGSGTDFTLAISSVQAEDLTTYFCQQYFSTPLTFGAGTKLELK",Kd (canine PD-1): 2 nM; koff (canine PD-1): 3.4e-05 s⁻¹; kon (canine PD-1): 18000 M⁻¹ s⁻¹
binds,"can2H9 VH4/VL3 IgGB (antibody, also called 2H9 VH4 IgGB/VL3; caninized 2H9 with un-modified IgGB Fc) heavy: EVQLVQSGGDLVKPGGSVRLSCVASGFNIKNTYMHWVRQAPGKGLQWIGRIAPANVDTKYAPKFQGKATISADTAKNTAYMQLNSLRAEDTAVYYCVLIYYDYDGDIDVWGQGTLVTVSSASTTAPSVFPLAPSCGSTSGSTVALACLVSGYFPEPVTVSWNSGSLTSGVHTFPSVLQSSGLYSLSSMVTVPSSRWPSETFTCNVAHPASKTKVDKPVPKRENGRVPRPPDCPKCPAPEMLGGPSVFIFPPKPKDTLLIARTPEVTCVVVDLDPEDPEVQISWFVDGKQMQTAKTQPREEQFNGTYRVVSVLPIGHQDWLKGKQFTCKVNNKALPSPIERTISKARGQAHQPSVYVLPPSREELSKNTVSLTCLIKDFFPPDIDVEWQSNGQQEPESKYRTTPPQLDEDGSYFLYSKLSVDKSRWQRGDTFICAVMHEALHNHYTQESLSHSPGK light: DIVMTQTPLSLSVSLGEPASISCHASQNINVWLSWYRQKPGQIPQLLIYKASHLHTGVPDRFSGSGSGTDFTLRISRVEADDAGVYYCQQGQSWPLTFGQGTKVEIKRNDAQPAVYLFQPSPDQLHTGSASVVCLLNSFYPKDINVKWKVDGVIQDTGIQESVTEQDSKDSTYSLSSTLTMSSTEYLSHELYSCEITHKSLPSTLIKSFQRSECQRVD",
binds,"can2H9 ADCC (1061) VH4/VL3 (antibody, also called can2H9 VH4 IgGB ADCC (1061)/VL3; YZZ1061) heavy: EVQLVQSGGDLVKPGGSVRLSCVASGFNIKNTYMHWVRQAPGKGLQWIGRIAPANVDTKYAPKFQGKATISADTAKNTAYMQLNSLRAEDTAVYYCVLIYYDYDGDIDVWGQGTLVTVSSASTTAPSVFPLAPSCGSTSGSTVALACLVSGYFPEPVTVSWNSGSLTSGVHTFPSVLQSSGLYSLSSMVTVPSSRWPSETFTCNVAHPASKTKVDKPVPKRENGRVPRPPDCPKCPAPEMLGGPSVFIFPPKPKDTLLIARTPEVTCVVVDLDPEDPEVQISWFVDGKQMQTAKTQPREEQFNGTYRVVSVLPIGHQDWLKGKQFTCKVNNKALASPIERTISKARGQAHQPSVYVLPPSREELSKNTVSLTCLIKDFFPPDIDVEWQSNGQQEPESKYRTTPPQLDEDGSYFLYSKLSVDKSRWQRGDTFICAVMHEALHNHYTQESLSHSPGK light: DIVMTQTPLSLSVSLGEPASISCHASQNINVWLSWYRQKPGQIPQLLIYKASHLHTGVPDRFSGSGSGTDFTLRISRVEADDAGVYYCQQGQSWPLTFGQGTKVEIKRNDAQPAVYLFQPSPDQLHTGSASVVCLLNSFYPKDINVKWKVDGVIQDTGIQESVTEQDSKDSTYSLSSTLTMSSTEYLSHELYSCEITHKSLPSTLIKSFQRSECQRVD",
binds,"can2H9 ADCC(1059) VH4/VL3 (antibody, also called can2H9 VH4 IgGB ADCC(1059)/VL3; YZZ1059) heavy: EVQLVQSGGDLVKPGGSVRLSCVASGFNIKNTYMHWVRQAPGKGLQWIGRIAPANVDTKYAPKFQGKATISADTAKNTAYMQLNSLRAEDTAVYYCVLIYYDYDGDIDVWGQGTLVTVSSASTTAPSVFPLAPSCGSTSGSTVALACLVSGYFPEPVTVSWNSGSLTSGVHTFPSVLQSSGLYSLSSMVTVPSSRWPSETFTCNVAHPASKTKVDKPVPKRENGRVPRPPDCPKCPAPEMLGGASVFIFPPKPKDTLLIARTPEVTCVVVDLDPEDPEVQISWFVDGKQMQTAKTQPREEQFNGTYRVVSVLPIGHQDWLKGKQFTCKVNNKALPSPIERTISKARGQAHQPSVYVLPPSREELSKNTVSLTCLIKDFFPPDIDVEWQSNGQQEPESKYRTTPPQLDEDGSYFLYSKLSVDKSRWQRGDTFICAVMHEALHNHYTQESLSHSPGK light: DIVMTQTPLSLSVSLGEPASISCHASQNINVWLSWYRQKPGQIPQLLIYKASHLHTGVPDRFSGSGSGTDFTLRISRVEADDAGVYYCQQGQSWPLTFGQGTKVEIKRNDAQPAVYLFQPSPDQLHTGSASVVCLLNSFYPKDINVKWKVDGVIQDTGIQESVTEQDSKDSTYSLSSTLTMSSTEYLSHELYSCEITHKSLPSTLIKSFQRSECQRVD",
,"can2H9 ADCC mut-1 VH4/VL3 (antibody, also called can2H9VH4 IgGB ADCC (mut-1)/VL3; YZZ1057/Mut-1) heavy: EVQLVQSGGDLVKPGGSVRLSCVASGFNIKNTYMHWVRQAPGKGLQWIGRIAPANVDTKYAPKFQGKATISADTAKNTAYMQLNSLRAEDTAVYYCVLIYYDYDGDIDVWGQGTLVTVSSASTTAPSVFPLAPSCGSTSGSTVALACLVSGYFPEPVTVSWNSGSLTSGVHTFPSVLQSSGLYSLSSMVTVPSSRWPSETFTCNVAHPASKTKVDKPVPKRENGRVPRPPDCPKCPAPEMLGGPSVFIFPPKPKDTLLIARTPEVTCVVVALDPEDPEVQISWFVDGKQMQTAKTQPREEQFNGTYRVVSVLPIGHQDWLKGKQFTCKVNNKALPSPIERTISKARGQAHQPSVYVLPPSREELSKNTVSLTCLIKDFFPPDIDVEWQSNGQQEPESKYRTTPPQLDEDGSYFLYSKLSVDKSRWQRGDTFICAVMHEALHNHYTQESLSHSPGK light: DIVMTQTPLSLSVSLGEPASISCHASQNINVWLSWYRQKPGQIPQLLIYKASHLHTGVPDRFSGSGSGTDFTLRISRVEADDAGVYYCQQGQSWPLTFGQGTKVEIKRNDAQPAVYLFQPSPDQLHTGSASVVCLLNSFYPKDINVKWKVDGVIQDTGIQESVTEQDSKDSTYSLSSTLTMSSTEYLSHELYSCEITHKSLPSTLIKSFQRSECQRVD",binding result [2]: binds
binds,"can2H9 ADCC(1060) VH4/VL3 (antibody, also called YZZ1060) heavy: EVQLVQSGGDLVKPGGSVRLSCVASGFNIKNTYMHWVRQAPGKGLQWIGRIAPANVDTKYAPKFQGKATISADTAKNTAYMQLNSLRAEDTAVYYCVLIYYDYDGDIDVWGQGTLVTVSSASTTAPSVFPLAPSCGSTSGSTVALACLVSGYFPEPVTVSWNSGSLTSGVHTFPSVLQSSGLYSLSSMVTVPSSRWPSETFTCNVAHPASKTKVDKPVPKRENGRVPRPPDCPKCPAPEMLGGPSVFIFPPKPKDTLLIARTPEVTCVVVDLDPEDPEVQISWFVDGKQMQTAKTQPREEQFNGTYRVVSVLPIGHQDWLKGKQFTCKVNNKGLPSPIERTISKARGQAHQPSVYVLPPSREELSKNTVSLTCLIKDFFPPDIDVEWQSNGQQEPESKYRTTPPQLDEDGSYFLYSKLSVDKSRWQRGDTFICAVMHEALHNHYTQESLSHSPGK light: DIVMTQTPLSLSVSLGEPASISCHASQNINVWLSWYRQKPGQIPQLLIYKASHLHTGVPDRFSGSGSGTDFTLRISRVEADDAGVYYCQQGQSWPLTFGQGTKVEIKRNDAQPAVYLFQPSPDQLHTGSASVVCLLNSFYPKDINVKWKVDGVIQDTGIQESVTEQDSKDSTYSLSSTLTMSSTEYLSHELYSCEITHKSLPSTLIKSFQRSECQRVD",

Binder,binding result [1],also measured
"can2H9 IgGD VH4/VL3 (antibody, also called can2H9 VH4 IgGD/VL3) heavy chain: EVQLVQSGGDLVKPGGSVRLSCVASGFNIKNTYMHWVRQAPGKGLQWIGRIAPANVDTKYAPKFQGKATISADTAKNTAYMQLNSLRAEDTAVYYCVLIYYDYDGDIDVWGQGTLVTVSSASTTAPSVFPLAPSCGSTSGSTVALACLVSGYFPEPVTVSWNSGSLTSGVHTFPSVLQSSGLYSLSSTVTVPSSRWPSETFTCNVVHPASNTKVDKPVPKESTCKCISPCPVPESLGGPSVFIFPPKPKDILRITRTPEITCVVLDLGREDPEVQISWFVDGKEVHTAKTQPREQQFNSTYRVVSVLPIEHQDWLTGKEFKCRVNHIGLPSPIERTISKARGQAHQPSVYVLPPSPKELSSSDTVTLTCLIKDFFPPEIDVEWQSNGQPEPESKYHTTAPQLDEDGSYFLYSKLSVDKSRWQQGDTFTCAVMHEALQNHYTDLSLSHSPGK light chain: DIVMTQTPLSLSVSLGEPASISCHASQNINVWLSWYRQKPGQIPQLLIYKASHLHTGVPDRFSGSGSGTDFTLRISRVEADDAGVYYCQQGQSWPLTFGQGTKVEIKRNDAQPAVYLFQPSPDQLHTGSASVVCLLNSFYPKDINVKWKVDGVIQDTGIQESVTEQDSKDSTYSLSSTLTMSSTEYLSHELYSCEITHKSLPSTLIKSFQRSECQRVD",no binding (tested: log(nM) about 0.83 (1 ug/mL)),
